The values that follow come from patent publication US20110152500A1.

For assay [1], the target named is VCAM1-Trx (human) (UniProt P19320). The experiment in a line: SPR (Biacore), synthetic peptide.
Assay [2] has the same target. The experiment in a line: SPR (Biacore), immobilisation of VCAM1 not stated. On the technique in general: Surface plasmon resonance follows binding to a sensor surface in real time, without labels.

Broadly, the Kd is the equilibrium constant for the complex coming apart. Low readings indicate a tighter complex, high ones a looser complex. Broadly, the koff is a measure of how fast the partners let go of each other. The low end stands for slow dissociation, the high end for fast dissociation. As a reminder, the kon is the second-order rate constant of association. A high value points to fast association. For QARDCTGSWTWENGKWTWKGPSICPI [Peptide 1 specific to VCAM1 (bipodal-peptide binder)], the Kd in the assay with VCAM1-Trx (human) [1] came to 318 nM. Also, in the assay with VCAM1-Trx (human) [2], the koff was determined as 0.1 s⁻¹ and the kon is 330000 M⁻¹ s⁻¹.
